Data reported in US20230236188A1.

Molecular target: CD40 on human B cells (human) (UniProt P25942)
Assay: cell-based or functional assay

Chain of UniProt P25942 (P25942 21-277): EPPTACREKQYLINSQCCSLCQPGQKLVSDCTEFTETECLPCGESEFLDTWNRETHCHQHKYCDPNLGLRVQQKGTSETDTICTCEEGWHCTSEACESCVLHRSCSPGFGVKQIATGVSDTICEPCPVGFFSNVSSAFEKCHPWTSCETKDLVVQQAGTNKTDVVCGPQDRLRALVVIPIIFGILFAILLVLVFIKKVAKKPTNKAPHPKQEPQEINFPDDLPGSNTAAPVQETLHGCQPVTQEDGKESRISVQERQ

average CD40 internalization score after co-culture with 10% hCD40L-CHO cells	average CD40 internalization score on fresh B cells co-cultured 1 h with autologous CD40L-IZ-stimulated B cells that had upregulated CD40L	percent of B cells with CD40 downregulation after 1 h co-incubation with 1% hCD40L-CHO cells [%]	percent of B cells with CD40 internalization after co-culture with 10% hCD40L-CHO cells [%]	percent of B cells with NF-kB p50 nuclear translocation after hCD40L-CHO cells (unstimulated: 29%) [%]	percent of fresh B cells with internalized CD40 after co-culture with autologous CD40L-IZ-stimulated B cells that had upregulated CD40L [%]	percent of fresh B cells with p50 nuclear translocation after co-culture with CD40L-IZ-stimulated B cells [%]	percent of total CD40lo/- B cells after 1 h co-incubation with 10% hCD40L-CHO cells [%]	average CD40 internalization score after 1 h stimulation (unstimulated: 0.41)	percent of B cells with NF-kB p50 nuclear translocation (unstimulated: 29%) [%]	percent of B cells with internalized CD40 (internalization score >2.5; unstimulated: 2.1%) [%]	Substance
1.69	1.26	5	33	54	19.5	41	37				human CD40 ligand (CD40L), membrane form on cells (from UniProt P29965 1-261)
								2.09	58	42	human CD40L isoleucine zipper (CD40L-IZ) (from UniProt P29965 113-261) (ligand)
